# From the DeepSol protein solubility set
# Assay: soluble on expression in E. coli; label from the status in PepcDB or PDB records
row,Sequence,soluble on expression in E. coli
1,MSLIPLRQNIASMKGYIPGYQPPDIASWIKLNTNENPYPPSPEVVKAILEELGPDGAALRIYPSASSQKLREVAGELYGFDPSWIIMANGSDEVLNNLIRAFAAEGEEIGYVHPSYSYYGTLAEVQGARVRTFGLTGDFRIAGFPERYEGKVFFLTTPNAPLGPSFPLEYIDELARRCAGMLVLDETYAEFAESNALELVRRHENVVVTRTLSKSYSLAGMRIGLAIARPEVIAALDKIRDHYNLDRLAQAACVAALRDQAYLSECCRRIRETREWFTTELRSIGYDVIPSQGNYLFATPPDRDGKRVYDGLYARKVLVRHFSDPLLAHGMRISIGTREEMEQTLAALKEIGEGHHHHHH,soluble
2,MSLIQAIKAKIIVTPGHAPIKDSAVIVKNNIIEKIIPSTELKNNYYQIIDLKNSVVLPGFINSHIHLELHWVQKLLEPFKSFPSWLNQIIKLKKNFNNSKIPYWVNKSLNECINSGVTTIGEISSYDGLDYKPILDKKIRAVYFYELTNSTLKNIENKFFQSLIRNKTNPLINFRIFPHSIYSLDTKSLKRILAFAKKHNIKLGMHLSESIDEVKYSKRKRNNFEKEVFPKTSYKPTIETKPTTPLEYLDTLNINRQHITLIHMNNLSQNDFKILTKKEYPVIICPRSNLYLNQKLPNIKFFMNYMKTGLGTDGLSSNLSINFLDEINFLYLNAKKIINNPEEKILSIATIGGAKALGIDNEVGTIEKGKKADIIAFDLLNKNPYLSIIHSKKRNLKMSMINGKIIKLREGHHHHHH,soluble
3,MSLIQGKAIIIGGGPCGLSAAIHLKQIGIDALVIEKGNVVNSIYNYPTHQTFFSSSEKLEIGDVAFITENRKPVRIQALSYYREVVKRKNIRVNAFEMVRKVTKTQNNTFVIETSKETYTTPYCIIATGYYDHPNYMGVPGEDLPKVFHYFKEGHPYFDKDVVVIGGKNSSVDAALELVKSGARVTVLYRGNEYSPSIKPWILPEFEALVRNGTIRMEFGACVEKITENEVVFRSGEKELITIKNDFVFAMTGYHPDHQFLEKIGVEIDKETGRPFFNEETMETNVEGVFIAGVIAAGNNANEIFIENGRFHGGHIAAEIAKRENHEGHHHHHH,soluble
4,MSLIVITGASSGLGAELAKLYDAEGKATYLTGRSESKLSTVTNCLSNNVGYRARDLASHQEVEQLFEQLDSIPSTVVHSAGSGYFGLLQEQDPEQIQTLIENNLSSAINVLRELVKRYKDQPVNVVMIMSTAAQQPKAQESTYCAVKWAVKGLIESVRLELKGKPMKIIAVYPGGMATEFWETSGKSLDTSSFMSAEDAALMIHGALANIGNGYVSDITVNREGHHHHHH,soluble
5,MSLIVNFHKVNLKKKYPLQISRGTHSKSQNLFVEIIKDGITGWGESAPGKTEGASNADEVEKWLLKLIDTGIDSLSIYEIFQRSKDLNIPPCVHAAIDIALWDWKAKKAGLPLNNLLGLPTPSTPTSLTIGINPPEIIKERVEMLLSNPQIKALKIKLGSPDGIEYDKSIYSQVLESTKKSNISIRVDANGGWSLDEAKLMMKWLAERKAEYIEQPLVEGEEDKLKYLFKSRPLPIFIDESCRFSEDVARHFEYVDGVNLKLMKCGGITEALRILNVAKSHNLKTMIGCMSESSISISAGASISGIIDYVDLDSHYNLDPDPSEGATMIDGITMNDNKPGHGSKLKIENYAEGHHHHHH,soluble
6,MSLIYLHGFDSNSPGNHEKVLQLQFIDPDVRLVSYSTRHPKHDMQHLLKEVDKMLQLNVDERPLICGVGLGGYWAERIGFLCDIRQVVFNPNLFPYENMEGKIDRPEEYADIATKCVTNFREKNRDRCLVILSRHDEALDSQRSAQALHPFYEIVWDEEQTHKFKNISPYLQRIKAFKTLGEGHHHHHH,not soluble
7,MSLKALIFDMDGVLVDSMPFHAAAWKKAFLEMGMEIQDEDIYAIEGSNPRNGLPLLIRKARKEPEDFDFEAITSIYRQEFNRIFKLKAFDGMKECLEFLKSRFLLSVVSGSDRLIVNGIVDQLFPGIFDTVVTGDDVLNSKPDPDPFLKAVELLNVGKEECVVIENAVLGVEAAKKADIYCIGVPTYVKPSELDRADLVVGNHQKLMEHLLSLEPLFSPEFIPGRREGHHHHHH,soluble
8,MSLKCEYLIIGSGIAGYNALKELLQIKPNSRIIMITSDKYYPYDRPPLSKDYLKGKLEKDMLFFESDDFYKRDNLEVMLNKSVERIDANLKEAILNDGSVISFDKALISTGGRPRRLNIPGSENALYLRSLDDADRIREAASKGKNALIIGAGFIGVEVASSLITLGVKTTVVEVMPYIWNTFVDEKVSRVIQQYLESKGINFILNESVKEIQGKIATTSSGRKIEADMFLIAVGISPNVELAQRSGMQVDNGIVVNEYLETSARDIYAAGDIANIFDPREGKRKRIEHWNNAEYTGKLAARNMAGSREAYNFISSIWSDIFDLHIESAGETRNYDEYIIRGKFELERPRFSVIYLKGGIIKGYLAINRNVKEIIALNKLIQKQADVSSKRDKLADESFDLQKLLIEGHHHHHH,soluble
9,MSLKDQVQLVKRRDSIRYEIVSIQDRLSFEKGFFAVIRACQLLSQKNDGIILVGVAGPSGAGKTVFTEKILNFLPSVAVISMDNYNDSSRIVDGNFDDPRLTDYDTLLKNLEDLKEGKQVEVPIYDFKSSSRVGYRTLDVPPSRIVIIEGIYALSEKLRPMLDLRVSVTGGVHFDLVKRVLRDIQRAGQQPEEIIHQISETVYPMYKAFIEPDLQTAQIKIINKFNPFTGFQSPTYILKSRKEGHHHHHH,not soluble
10,MSLKEVAAKTGIGTLPEWNLGDLYMGIDAPEIAHDLAKMDAECVAFETDYKGKLAEHVARDDGGEWLAAAVRRYEAIDDLAGRLGSFAGLAHAGDSVDPAISKFYGDISERLTAASTHLLFFPLELNRIDDAVIERAMETPALGHYRPWIEDLRKDKPYQLEDRVEQLFHEKSQTGYSAWNRLFDQTIAGLRFQVGGKELAIEPTLNFLQDRDGAKRKAAAEALAKTFKANERTFALITNTLAKDKDISDRWRGFQDVADSRHLNNRVEREVVDALVASVRAAYPKLSHRYYQLKARWFKKKKLAHWDRNAPLPFAANATIAWPDAKNMVLTAYRGFSPEMADIAQRFFDQSWIDAPVRPGKAPGAFSHPTTPSAHPYVLMNYQGKPRDVMTLAHELGHGVHQVLAARQGALMAPTPLTLAETASVFGEMLTFKRLLSETRDAKQRQALLAGKVEDMINTVVRQIAFYSFERAVHTERKNGELTAERLGQIWLSVQTESLGEAIEIKPGYENFWMYIPHFIHSPFYVYAYAFGDCLVNSLYAVYEHAAEGFAERYLAMLAAGGTKHYSELLAPFGLDAKDPKFWDGGLSVIAGMIDELERMGEGHHHHHH,soluble
11,MSLKFPRKGIPQEEVMRELEKYTSKDLSFSSGKILGSMCTLPHELAKEVFCMYMDRNLGDPGLHPGTKKIEEEVIEMLSDLLHLERGYGHIVSGGTEANILAVRAFRNLADVENPELILPKSAHFSFIKAGEMLGVKLIWADLNPDYTVDVKDVEAKISENTIGIVGIAGTTGLGVVDDIPALSDLARDYGIPLHVDAAFGGFVIPFAKELGYDLPDFDFKLKGVQSITIDPHKMGMAPIPAGGIVFRHKKYLRAISVLAPYLAGGKIWQATITGTRPGASVLAVWALIKHLGFEGYMEIVDRAMKLSRWFAEEIKKTPGAWLVREPMLNIVSFKTKNLRRVERELKSRGWGISAHRGYIRIVSHASCDGGHDEGHHHHHH,soluble
12,MSLKFYEDGNIPEIPNMYFIYGDGGTGKTSLLKQLKGHKFVFSFDMSSNVLIGDKDVDVVIFEHNDAPNIQAMVEECIIRAIQNAKYQVIVLDNVTALQNLVLENIDNAAKDNRQNYQKLQLWFRDLGTILKESGKTIYATAHQLDNGSSGISGEGRFQADMNEKTFNAFTSMFDLVGRIYLAAGERMIDLDPEKGNHAKNRLDDRKLIKANELIQSEKGEGHHHHHH,soluble
13,MSLKGIVFGSGQIGSSVALNLVDGMDVTVADRDPTNLRKIQDNIGSRVSVIQVDALRDDIKHIISDYDIVVSALPGSVGFQFAKSIAPFGVRMIDISYYEDDVFLLDDVAKKSSSVIVPDIGFAPGISNVLVGHFSYELEDVKDVHIYVGGIPEKRIGGLDYVITWSVEGLLDEYTRPVHIVQNGSITQVEPLSGLEKINIQKYTDLEAFYTDGLRTLGKTIRASGSMWEKTVRYSGHAEKIRLLKDLGFFSRKKVKVGNSEIAPFDFTAEIFRNNLSMSGVKDVSLMYVKVTGTRNGDIVKHEASMVAPYDEKRKRSSMANVTSVPASATADFLSKNEIGKYGVVAPEILGKDENFYKQFINYLGQYGIIISEGHHHHHH,not soluble
14,MSLKHSKIRIAHISDIHIGSRLDKLPQKMVNKIIEENPDLVVITGDLIDSHNVISTDLASFNAFKERNIPIYYTIGNHDIMAGEEYVSSILEYYGIIYLKNQVTQITIGDETIQLVGIDDVQSITKYNEIFNSITPSIHNNIYTILLHHRPQGYKTSVQSGQIDLQLAGHTHDGQVFPFNYIVPLFHSKSYGMYHIKDEGHHHHHH,not soluble
15,MSLKIAILYREEREKEGEFLKEKISKEHEVIEFGEANAPGRVTADLIVVVGGDGTVLKAAKKAADGTPMVGFKAGRLGFLTSYTLDEIDRFLEDLRNWNFREETRWFIQIESELGNHLALNDVTLERDLSGKMVEIEVEVEHHSSMWFFADGVVISTPTGSTAYSLSIGGPIIFPECEVLEISPIAPQFFLTRSVVIPSNFKVVVESQRDINMLVDGVLTGKTKRIEVKKSRRYVRILRPPEYDYVTVIRDKLGYGRRIEEGGSHHHHHH,soluble
16,MSLKIHGLIDAPFTPFYENGEVNYEPIEAYCQLLVRNGLQGVFINGSSGEGYMLTEDERMKLAERWMEVAPEGFKVIVHVGSTCVKSSKRLAEHAQKIGAWGIGAMAPPFPKVGRIEELVKYCEEIACGAPALPFYFYHIPAFNGAFLSMVAFLEAVDGRIPNFAGIKYTFESLYEYNQCRLYKNGKFDMLHGQDETILPCLAMGGAQGGIGGTTNYNGKELTGIIEAWKAGDLELARERQNFAQEVINVICHYRGNIVGGKRIMKLIGLDLGKNRTPFQNMTDEEEAAMKAELEAINFFEREGHHHHHH,soluble
17,MSLKITDLELHAVGIPRHTGFVNKHVIVKIHTDEGLTGIGEMSDFSHLPLYSVDLHDLKQGLLSILLGQNPFDLMKINKELTDNFPETMYYYEKGSFIRNGIDNALHDLCAKYLDISVSDFLGGRVKEKIKVCYPIFRHRFSEEVESNLDVVRQKLEQGFDVFRLYVGKNLDADEEFLSRVKEEFGSRVRIKSYDFSHLLNWKDAHRAIKRLTKYDLGLEMIESPAPRNDFDGLYQLRLKTDYPISEHVWSFKQQQEMIKKDAIDIFNISPVFIGGLTSAKKAAYAAEVASKDVVLGTTQELSVGTAAMAHLGCSLTNINHTSDPTGPELYVGDVVKNRVTYKDGYLYAPDRSVKGLGIELDESLLAKYQVPDLSWDNVTVHQLQDRTADTKSEGHHHHHH,soluble
18,MSLKITDVRAHQIRIPYDAGVASFRQGASAITALDMVIVEVTTDAGLTGWGDAFAYVCPRTTRSAVEEMIAPQARGLEVPDAAGIAAVMEQIQRNLHLFGRYGITMFAISGLDIALWDLAAKIKGVPVHRLLGETRRPAIPAYASLLRIGSPDNIAAECKKALALGYGAIKLHETTAPAVYAAREAIGPGVPLMVDMNCPLSGEQAIAFAGTCRDAQPMFLEEPVWPPEDFAALAEVRSKGGLGVAAGENACTEHQFRQMMNAGAVSHAQPSVIKVGGITEFLKVAALADRLGVKIVPHSPYFGPGLLATLHLLAGRDDGFVEMFYLKREACLWGGRADVDATGHVAVPTGLGLGYEPDRGVMERYRVAEGHHHHHH,not soluble
19,MSLKITFTDKALDYLKRREILNKILILIADDGGGKYSIKGGGCAIGSHFSIIYVDKVDPDYPIKLENDQGINIYTSKYDTTMMGPNLVVDYANASLNLKSDEGLLDGGVDIGNGAELIKAQKNVKMTGVEWRCEGHHHHHH,soluble
